Reference: publication doi:10.1101/2022.03.14.484276

Target: BsaXI S subunit (specificity subunit), WT TRD1-CR1-TRD2-CR2 (Bacillus stearothermophilus 25B (Geobacillus sp. 25B))
Assay: co-purification through chromatography columns

Q: Which stoichiometry N does the source give for “BsaXI RM subunit (restriction-modification fusion subunit) (enzyme)” here?
A: 2 RM per S
